The record followed here is paper PMC4259882.

Series [1] concerns the target T1, FadR WT (Escherichia coli K12, UniProt P0A8V6 1-239). The series can be described thus: EMSA; Roche DIG gel shift binding buffer (composition not stated), 15 min, room temperature; 0.1 pmol (Fig. 3) or 0.2 pmol (Fig. 6) probe; 7-7.5% native PAGE. Background: A gel shift assay detects complexes by their altered migration in electrophoresis.
Series [2] concerns the target T2, FadR K113 (W60G) (Escherichia coli strain K113, UniProt P0A8V6 1-239, W60G). The series can be described thus: EMSA; up to 2 pmol protein; Roche DIG gel shift binding buffer (composition not stated), 15 min, room temperature; 0.1 pmol (Fig. 3) or 0.2 pmol (Fig. 6) probe; 7-7.5% native PAGE.
The next series addresses FadR F74G (Escherichia coli K12, UniProt P0A8V6 1-239, F74G). The series can be described thus: EMSA; up to 10 pmol protein; Roche DIG gel shift binding buffer (composition not stated), 15 min, room temperature; 0.1 pmol (Fig. 3) or 0.2 pmol (Fig. 6) probe; 7-7.5% native PAGE.
Another series concerns the target FadR W75G (Escherichia coli K12, UniProt P0A8V6 1-239, W75G). The series is described as above.
For the next series, the target named is FadR F74G/W75G (Escherichia coli K12, UniProt P0A8V6 1-239, F74G;W75G). Described as above.
In series [3] the target is T2, FadR K113 (W60G). Described as above.
Series [4] addresses T1, FadR WT. The series can be described thus: EMSA; dose-dependent, 0.05-10 pmol protein; Roche DIG gel shift binding buffer (composition not stated), 15 min, room temperature; 0.1 pmol (Fig. 3) or 0.2 pmol (Fig. 6) probe; 7-7.5% native PAGE.

B1: fabA probe (dsDNA)
DNA 1: TTTATTCCGAACTGATCGGACTTGTTCAGCGTACACGTGTTAGCTATCCTGCGTGC
DNA 2: GCACGCAGGATAGCTAACACGTGTACGCTGAACAAGTCCGATCAGTTCGGAATAAA
With B1, the binding result is listed as “binds” with FadR WT [1] and “no binding” with FadR K113 (W60G) [2].

B2: fadL probe 2 (dsDNA)
DNA 1: CTCTCGCCACTGGTCTGATTTCTAAGATGTACCTC
DNA 2: GAGGTACATCTTAGAAATCAGACCAGTGGCGAGAG
In the case of B2, the binding result with FadR WT [1] was “binds”; with FadR K113 (W60G) [2], “no binding”.

B3: fadD probe 2 (dsDNA)
DNA 1: GTAATTATCAAGCTGGTATGATGAGTTAATATTATG
DNA 2: CATAATATTAACTCATCATACCAGCTTGATAATTAC
For the molecule B3, the binding result is on record as “no binding” in the series with FadR F74G; “no binding” in the series with FadR W75G; “no binding” in the series with FadR F74G/W75G; “no binding” with FadR K113 (W60G) [3]; “binds” with FadR WT [4].

B4: fabB probe (dsDNA)
DNA 1: TCTATTAAATGGCTGATCGGACTTGTTCGGCGTACAAGTGTACGCTATTGTGCATTC
DNA 2: GAATGCACAATAGCGTACACTTGTACGCCGAACAAGTCCGATCAGCCATTTAATAGA
As to B4, the binding result with FadR WT [1] was “binds”; in the series with FadR K113 (W60G) [2] it was “no binding”.

B5: fadL probe 1 (dsDNA)
DNA 1: GCAACATTCCAGCTGGTCCGACCTATACTCTCGCC
DNA 2: GGCGAGAGTATAGGTCGGACCAGCTGGAATGTTGC
Turning to B5, the binding result was “binds” in the series with FadR WT [1] and “no binding” with FadR K113 (W60G) [2].

B6: fadBA probe (dsDNA)
DNA 1: ACTTCGACTCATCTGGTACGACCAGATCACCTTGCGG
DNA 2: CCGCAAGGTGATCTGGTCGTACCAGATGAGTCGAAGT
In the case of B6, the figures for the binding result with FadR WT [1] and with FadR K113 (W60G) [2] were “binds” and “no binding”, respectively.

B7: fadD probe 1 (dsDNA)
DNA 1: GAAACAGCGGCTGGTCCGCTGTTTCTGCATTCT
DNA 2: AGAATGCAGAAACAGCGGACCAGCCGCTGTTTC
B7: the binding result with FadR WT [1] is reported as “binds”; with FadR K113 (W60G) [2], “no binding”.
